Test results: US5677163

Assays:
[1] = target: KAAFpNA
[2] = target: VLKpNA
[3] = target: sAAApNA
[4] = target: sAAPFpNA
[5] = target: sAAPLpNA
[6] = target: sAAPMpNA

| Substance | Hydrolysis Rate (A405 /min) [1] [A405/min] | Hydrolysis Rate (A405 /min) [2] [A405/min] | Hydrolysis Rate (A405 /min) [3] [A405/min] | Hydrolysis Rate (A405 /min) [4] [A405/min] | Hydrolysis Rate (A405 /min) [5] [A405/min] | Hydrolysis Rate (A405 /min) [6] [A405/min] |
| --- | --- | --- | --- | --- | --- | --- |
| B. amyloliquefaciens subtilisin (protease) (enzyme) | 0.002 | 0.0017 | 0.011 | 0.83 | 0.45 | 0.25 |
| B. lentus protease (Savinase) (enzyme) | 0.08 | 0.0003 | 0.176 | 1.15 | 0.23 | 0.75 |
| LG-12 protease (Bacillus sp. strain LG-12 subtilisin, product of the sprC gene) (enzyme) | 0.006 | 0.0008 | 0.014 | 0.87 | 0.58 | 0.19 |
